Data on twelve molecules can be found in US20240270846A1 (published 2024).

Positions count from the first letter of the chain named.

T1: cynomolgus monkey CD137 (cynomolgus monkey, UniProt Q07011 24-186 (human entry), limits assumed)
T1 construct: Soluble analyte in the Biacore assay; also called cyno CD137
T1 chain: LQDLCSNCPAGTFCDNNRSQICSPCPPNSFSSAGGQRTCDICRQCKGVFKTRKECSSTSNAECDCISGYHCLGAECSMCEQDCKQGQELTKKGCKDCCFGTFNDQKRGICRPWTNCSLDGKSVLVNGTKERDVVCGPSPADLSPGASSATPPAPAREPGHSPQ

B1: GPC3 ERY22-dBBDu_186/L096 (bispecific antibody, human IgG1, kappa, L234A L235A, N297A)
heavy 1: DIVMTQSPLSLPVTPGEPASISCRSSQSLVHSNRNTYLHWYQQKPGQAPRLLIYKVSNRFSGVPDRFSGSGSGTDFTLKISRVEAEDVGVYYCSQNTHVPPTFGQGTKLEIKSSASTKGPSVFPLAPSSKSTSGGTAALGCLVKDYFPEPVTVSWNSGALTSGVHTFPAVLQSSGLYSLSSVVTVPSSSLGTQTYICNVNHKPSNTKVDKKVEPKSCDKTHTCPPCPAPEAAGGPSVFLFPPKPKDTLMISRTPEVTCVVVDVSHEDPEVKFNWYVDGVEVHNAKTKPREEQYASTYRVVSVLTVLHQDWLNGKEYKCKVSNKALPAPIEKTISKAKGQPREPQVCTLPPSRDELTKNQVSLWCLVKGFYPSDIAVEWESNGQPENNYKTTPPVLDSDGSFFLYSKLTVDKSRWQQGNVFSCSVMHEALHNHYTQKSLSLSPHHHHHHHH
light 1: QVQLVQSGAEVKKPGASVKVSCKASGYTFTDYEMHWIRQPPGQGLEWIGAIDPKTGDTAYSQKFKGRVTLTADKSTSTAYMELSSLTSEDTAVYYCTRFYSYTYWGQGTLVTVSSASVAAPSVFIFPPSDEQLKSGTASVVCLLNNFYPREAKVQWKVDNALQSGNSQESVTEQDSKDSTYSLSSTLTLSKADYEKHKVYACEVTHQGLSSPVTKSFNRGEC
heavy 2: QVQLVESGGGLVQPGRSLRLSCAASGFTFSNAWMHWVRQAPGKGLEWVAQIKDRSNQYATYYAPSVKGRFTISRDDSKNSIYLQMNSLKTEDTAVYYCHYVHYAQASTVLPAFGVDAWGQGTTVTVSSASTKGPSVFPLAPSSKSTSGGTAALGCLVKDYFPEPVTVSWNSGALTSGVHTFPAVLQSSGLYSLSSVVTVPSSSLGTQTYICNVNHKPSNTKVDKKVEPKSCDKTHTCPPCPAPEAAGGPSVFLFPPKPKDTLMISRTPEVTCVVVDVSHEDPEVKFNWYVDGVEVHNAKTKPREEQYASTYRVVSVLTVLHQDWLNGKEYKCKVSNKALPAPIEKTISKAKGQPREPQVYTLPPSRCELTKNQVSLSCAVKGFYPSDIAVEWESNGQPENNYKTTPPVLDSDGSFFLVSKLTVDKSRWQQGNVFSCSVMHEALHNHYTQKSLSLSPDYKDDDDK
light 2: DIVMTQSPLSLPVTPGEPASISCRTSQELVHINRYIFLHWYQQKPGQAPRLLIYKVYNRFQGVPDRFSGSGSGTDFTLKISRVEAEDVGVYYCAQGTSVPYTFGQGTKLEIKRTVAAPSVFIFPPSDEQLKSGTASVVCLLNNFYPREAKVQWKVDNALQSGNSQESVTEQDSKDSTYSLSSTLTLSKADYEKHKVYACEVTHQGLSSPVTKSFNRGEC
B2: GPC3 ERY22-dBBDu_189/L116 (bispecific antibody, human IgG1, kappa, L234A L235A, N297A)
heavy 1: B1 heavy 1
light 1: B1 light 1
heavy 2: B1 heavy 2 with V48I, T108S, V109L, A112S
light 2: B1 light 2 with R24S, T25S, I32A, Y35Q, F37Y, Y57A, Q61P, S98Q, Y101F
B3: GPC3 ERY22-dBBDu_186/L106 (bispecific antibody, human IgG1, kappa, L234A L235A, N297A)
heavy 1: B1 heavy 1
light 1: B1 light 1
heavy 2: B1 heavy 2
light 2: B1 light 2 with R24S, Q27E, V30L, Y35F, Y57A, Q61M, T97S, S98Q, Y101F
B4: GPC3 ERY22-dBBDu_186/L098 (bispecific antibody, human IgG1, kappa, L234A L235A, N297A)
heavy 1: B1 heavy 1
light 1: B1 light 1
heavy 2: B1 heavy 2
light 2: B1 light 2 with R24A, T25A, Q27E, Y57S, Q61I, T97S, S98Q, Y101F
B5: GPC3 ERY22-dBBDu_189/L119 (bispecific antibody, human IgG1, kappa, L234A L235A, N297A)
heavy 1: B1 heavy 1
light 1: B1 light 1
heavy 2: B1 heavy 2 with V48I, T108S, V109L, A112S
light 2: B1 light 2 with R24T, T25A, Y35F, Y57S, Q61I, T97S, S98Q, Y101F
B6: dBBDu_186 / dBBDu_L096 (antibody, human IgG1, V domains shown)
VH: QVQLVESGGGLVQPGRSLRLSCAASGFTFSNAWMHWVRQAPGKGLEWVAQIKDRSNQYATYYAPSVKGRFTISRDDSKNSIYLQMNSLKTEDTAVYYCHYVHYAQASTVLPAFGVDAWGQGTTVTVSS
VL: DIVMTQSPLSLPVTPGEPASISCRTSQELVHINRYIFLHWYQQKPGQAPRLLIYKVYNRFQGVPDRFSGSGSGTDFTLKISRVEAEDVGVYYCAQGTSVPYTFGQGTKLEIK
notes: Tested as IgG (human IgG1 constant region, kappa light chain); also called dBBDu186/L096
B7: dBBDu_167 / dBBDu_L091 (antibody, human IgG1, V domains shown)
VH: B6 VH with R54K, S55G, Q57L, T60A, Q105S, S107G, T108G, V109G, A112G
VL: DIVMTQSPLSLPVTPGEPASISCSASESLLHNNRHTYLHWYQQKPGQAPRLLIYRVSNRFNGVPDRFSGSGSGTDFTLKISRVEAEDVGVYYCGQGTQVPFTFGQGTKLEIK
notes: Tested as IgG (human IgG1 constant region, kappa light chain); also called dBBDu167/L091
B8: dBBDu_189 / dBBDu_L116 (antibody, human IgG1, V domains shown)
VH: B6 VH with V48I, T108S, V109L, A112S
VL: B6 VL with R24S, T25S, I32A, Y35Q, F37Y, Y57A, Q61P, S98Q, Y101F
notes: Tested as IgG (human IgG1 constant region, kappa light chain); also called dBBDu189/L116
B9: dBBDu_189 / dBBDu_L112 (antibody, human IgG1, V domains shown)
VH: B6 VH with V48I, T108S, V109L, A112S
VL: B6 VL with R24T, T25S, S26D, I32M, Y35H, I36T, F37Y, Q61P, Y101F
notes: Tested as IgG (human IgG1 constant region, kappa light chain); also called dBBDu189/L112
B10: dBBDu_183 / dBBDu_L063 (antibody, V domains shown)
VH: B6 VH with R54K, S55G, Q57A, T60A, Q105S
VL: B6 VL with T25S, I32T, Y35H, I36T, F37Y, Y57S, Q61P, S98Q, Y101F
notes: Tested as IgG (Fab genes converted into IgG format, human IgG1 constant region, kappa light chain); also called dBBDu183/L063; dBBDu_183/L063
B11: dBBDu_183 / dBBDu_L067 (antibody, human IgG1, V domains shown)
VH: B6 VH with R54K, S55G, Q57A, T60A, Q105S
VL: B7 VL with S24Q, A25S, L30V, N32V, R55K, S57Y, N61P, G94A, Q98S
notes: Tested as IgG (human IgG1 constant region, kappa light chain); also called dBBDu183/L067
B12: dBBDu_183 / dBBDu_L072 (antibody, human IgG1, V domains shown)
VH: B6 VH with R54K, S55G, Q57A, T60A, Q105S
VL: B6 VL with R24Q, T25A, I32M, Y35N, I36T, F37Y, Y57S, Q61P, Y101F
notes: Tested as IgG (human IgG1 constant region, kappa light chain); also called dBBDu183/L072; H183L072

In one assay the target is human CD137 expressed constitutively on the B cell strain HDLM-2 (human, UniProt Q07011 24-255). As to the kind of experiment: cell-based or functional assay.
Chain of human CD137 expressed constitutively on the B cell strain HDLM-2 (Q07011 24-255): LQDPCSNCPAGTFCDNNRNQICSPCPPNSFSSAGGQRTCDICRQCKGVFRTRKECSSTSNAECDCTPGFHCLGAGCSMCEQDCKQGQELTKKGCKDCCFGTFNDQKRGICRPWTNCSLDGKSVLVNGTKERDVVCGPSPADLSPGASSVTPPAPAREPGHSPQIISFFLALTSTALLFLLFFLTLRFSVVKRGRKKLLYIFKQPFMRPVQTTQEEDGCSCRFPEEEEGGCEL
Take B1: the “Agonistic activity compared to B, antibody 6 µg/mL” value came to 19%; the “Agonistic activity compared to B, antibody 30 µg/mL” value was 24.2%; the “Agonistic activity compared to Ctrl, antibody 6 µg/mL” value worked out at 66.1%; the “Agonistic activity compared to Ctrl, antibody 30 µg/mL” value came to 91.7%. In addition, the “hIL-6 (pg/mL), antibody 6 µg/mL” value was found to be 1680 pg/mL and the “hIL-6 (pg/mL), antibody 30 µg/mL” value was 1740 pg/mL.

B2: the “Agonistic activity compared to B, antibody 6 µg/mL” value was found to be 8.28%; the “Agonistic activity compared to B, antibody 30 µg/mL” value came out at 19.2%; the “Agonistic activity compared to Ctrl, antibody 6 µg/mL” value worked out at 28.7%; the “Agonistic activity compared to Ctrl, antibody 30 µg/mL” value came to 72.9%. For the same molecule, the “hIL-6 (pg/mL), antibody 6 µg/mL” value came out at 1300 pg/mL and the “hIL-6 (pg/mL), antibody 30 µg/mL” value turned out to be 1570 pg/mL.

As to B3, the “Agonistic activity compared to B, antibody 6 µg/mL” value was 13.2%; the “Agonistic activity compared to B, antibody 30 µg/mL” value amounted to 19.4%; the “Agonistic activity compared to Ctrl, antibody 6 µg/mL” value came out at 45.8%; the “Agonistic activity compared to Ctrl, antibody 30 µg/mL” value stood at 73.6%. Also, the “hIL-6 (pg/mL), antibody 6 µg/mL” value was 1480 pg/mL and the “hIL-6 (pg/mL), antibody 30 µg/mL” value came out at 1570 pg/mL.

Consider B4, for which the “Agonistic activity compared to B, antibody 6 µg/mL” value was determined as 13.9%; the “Agonistic activity compared to B, antibody 30 µg/mL” value stood at 24.6%; the “Agonistic activity compared to Ctrl, antibody 6 µg/mL” value stood at 48.3%; the “Agonistic activity compared to Ctrl, antibody 30 µg/mL” value was found to be 93.5%. The “hIL-6 (pg/mL), antibody 6 µg/mL” value came out at 1500 pg/mL and the “hIL-6 (pg/mL), antibody 30 µg/mL” value came to 1750 pg/mL.

In the case of B5, the “Agonistic activity compared to B, antibody 6 µg/mL” value was determined as 6.92%; the “Agonistic activity compared to B, antibody 30 µg/mL” value stood at 20.4%; the “Agonistic activity compared to Ctrl, antibody 6 µg/mL” value came to 24%; the “Agonistic activity compared to Ctrl, antibody 30 µg/mL” value stood at 77.3%. In addition, the “hIL-6 (pg/mL), antibody 6 µg/mL” value was 1260 pg/mL and the “hIL-6 (pg/mL), antibody 30 µg/mL” value amounted to 1610 pg/mL.

The target of the next assay is T1, cynomolgus monkey CD137. As to the kind of experiment: SPR Biacore T200, IgG captured on protein A, antigen as analyte, 25 C.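 Also: antigens flowed over a CM3 chip for 120 s association, KD derived from ka and kd, running buffer (ACES, NaCl, Tween20, pH 7.4) served as blank.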
Method: (§1) Sensor chip CM3 (GE Healthcare) was immobilized with an appropriate amount of sure protein A (GE Healthcare) by amine coupling. The selected antibodies were captured by the chip to allow interaction to human CD3ed, human CD137 and cyno CD137 as an antigen. The running buffer used was 20 mmol/l ACES, 150 mmol/l NaCl, 0.05% (w/v) Tween20, pH 7.4. All measurements were carried out at 25 degrees C. The antigens were diluted using the running buffer.
(§2) Diluted antigen solutions and the running buffer which is the blank were loaded at a flow rate of 30 micro L/min for 120 seconds to allow each of the antigens to interact with the antibody captured on the sensor chip. […] Next, to regenerate the sensor chip, 10 mmol/L glycine-HCl, pH 1.5 was loaded at a flow rate of 30 micro L/min for 30 seconds and 50 mmol/L NaOH was loaded at a flow rate 30 micro L/min for 30 seconds.
(§3) Kinetic parameters such as the association rate constant ka (1/Ms) and the dissociation rate constant kd (1/s) were calculated based on the sensorgrams obtained by the measurements. The dissociation constant KD(M) was calculated from these constants. Each parameter was calculated using the Biacore T200 Evaluation Software (GE Healthcare).
A word on the Kd: it is the free concentration of one partner at which half of the binding sites on the other are occupied at equilibrium, for simple one-to-one binding. By koff is commonly meant the first-order rate constant of dissociation. B6 came in with a Kd of 205 µM and an off-rate (koff) of 0.00223 s⁻¹.

Usually kon stands for a measure of how fast the partners come together. On to B7, for which the Kd came to 4.17 µM, the koff was 0.0101 s⁻¹ and the kon is 2430 M⁻¹ s⁻¹.

Regarding B8, the equilibrium dissociation constant (Kd) was 11.1 µM, the koff turned out to be 0.00823 s⁻¹ and the kon was determined as 744 M⁻¹ s⁻¹.

On to B9, for which the Kd worked out at 5.76 µM, the off-rate constant (koff) came out at 0.0286 s⁻¹ and the kon stood at 4980 M⁻¹ s⁻¹.

Take B10: binding was characterised by a dissociation constant (Kd) of 3.12 µM, the koff came out at 0.00457 s⁻¹ and the kon turned out to be 1470 M⁻¹ s⁻¹.

On to B11, for which the Kd turned out to be 6.2 µM, the dissociation rate constant (koff) was determined as 0.00813 s⁻¹ and the on-rate (kon) worked out at 1310 M⁻¹ s⁻¹.

Regarding B12, the affinity, expressed as Kd, was 4.87 µM; the koff is 0.00593 s⁻¹; the kon was found to be 1220 M⁻¹ s⁻¹.

Another assay deals with T2, human CD3ed (human, UniProt P07766 23-126; P04234 22-105, limits assumed).
T2 construct: The construct injected as 'human CD3ed' in the Biacore assay is not defined; also called human CD3 epsilon/delta heterodimer
T2 sequence (P07766 23-126 limits assumed, chain 1 of 2): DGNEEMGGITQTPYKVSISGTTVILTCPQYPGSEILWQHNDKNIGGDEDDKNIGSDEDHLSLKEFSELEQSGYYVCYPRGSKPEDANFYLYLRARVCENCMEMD
T2 sequence (P04234 22-105 limits assumed, chain 2 of 2): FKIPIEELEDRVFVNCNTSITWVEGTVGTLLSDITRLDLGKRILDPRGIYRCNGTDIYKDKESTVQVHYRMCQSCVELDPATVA
Described as above.
Method: as §1, §2, §3
Molecule B6 had a dissociation constant (Kd) of 9.11 µM, a dissociation rate constant (koff) of 0.102 s⁻¹ and a kon of 11200 M⁻¹ s⁻¹.

B7 registered an equilibrium dissociation constant (Kd) of 0.413 µM, an off-rate constant (koff) of 0.0216 s⁻¹ and a kon of 52400 M⁻¹ s⁻¹.

B8 gave a dissociation constant (Kd) of 0.209 µM, an off-rate (koff) of 0.00434 s⁻¹ and a kon of 20800 M⁻¹ s⁻¹.

B9 came in with a Kd of 0.331 µM, a koff of 0.01 s⁻¹ and a kon of 30300 M⁻¹ s⁻¹.

The molecule B10 had a Kd of 0.276 µM, a koff of 0.0157 s⁻¹ and a kon of 56900 M⁻¹ s⁻¹.

For B11, binding was characterised by a dissociation constant (Kd) of 0.217 µM, the koff is 0.0193 s⁻¹ and the kon amounted to 88900 M⁻¹ s⁻¹.

With B12, the affinity, expressed as Kd, was 0.217 µM; the koff was 0.00785 s⁻¹; the kon came out at 36100 M⁻¹ s⁻¹.
